Patent publication CN112851815A (XIAN YUFAN BIOTECHNOLOGIES CO LTD, dated 2021)

How the values were obtained:
[1] = molecular target: T1, BCMA蛋白 (BCMA protein, B cell maturation antigen) (human, UniProt Q02223 1-54); assay: ELISA, BCMA coated at 2 μg/mL, serially diluted scFv, detection by mouse anti-HA and HRP goat anti-mouse IgG, OD450
T1 construct: extracellular domain; also called 抗原BCMA; CD269
T1 sequence (looked up): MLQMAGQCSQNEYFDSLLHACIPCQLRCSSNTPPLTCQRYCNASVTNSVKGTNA

[2] = molecular target: T2, BSA蛋白 (BSA, control protein) (UniProt P02769 25-607); assay: ELISA, BSA coated at 2 μg/mL, serially diluted scFv, detection by anti-HA and HRP goat anti-mouse IgG
T2 construct: Control protein coated at 2 μg/mL; also called 对照蛋白
T2 sequence (P02769 25-607 limits assumed): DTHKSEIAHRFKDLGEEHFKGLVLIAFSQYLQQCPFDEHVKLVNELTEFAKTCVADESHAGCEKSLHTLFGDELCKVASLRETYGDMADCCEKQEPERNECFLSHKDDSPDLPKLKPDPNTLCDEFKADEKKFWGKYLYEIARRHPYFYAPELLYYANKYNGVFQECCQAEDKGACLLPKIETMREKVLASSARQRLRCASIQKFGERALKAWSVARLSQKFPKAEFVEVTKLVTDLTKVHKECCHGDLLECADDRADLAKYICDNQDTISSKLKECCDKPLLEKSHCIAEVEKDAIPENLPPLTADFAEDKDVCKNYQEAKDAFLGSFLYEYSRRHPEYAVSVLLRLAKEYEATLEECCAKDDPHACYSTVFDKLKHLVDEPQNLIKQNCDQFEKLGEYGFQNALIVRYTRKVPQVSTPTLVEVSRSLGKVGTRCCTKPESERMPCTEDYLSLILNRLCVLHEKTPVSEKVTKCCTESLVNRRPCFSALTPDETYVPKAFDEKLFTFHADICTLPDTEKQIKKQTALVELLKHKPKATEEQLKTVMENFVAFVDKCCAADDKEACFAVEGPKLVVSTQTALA

B1: 抗BCMA单链抗体B36 (anti-BCMA fully human scFv B36) (scFv)
scFv: QVQLVQSGAEVKKPGSSVKVSCKASGGTFSSYAISWVRQAPGQGLEWMGRIIPILGIANYAQKFQGRVTITADESTSTAYMELSSLRSDDTAVYYCARAGYDRSGYYFQHWGQGTLVTVSSGGGGSGGGGSGGGGSVLTQPPSVSGTPGQRVTISCSGSSSNIGSNIVNWYQQVPGTAPKLLIYSNNQRPSGVPGRFSGSKSGTSASLAIRGLQSDDEADYYCAAWDGGPRGHYVFGTGTKVSVL
notes: The purified protein carries C-terminal HA and 6xHis tags; also called 抗BCMA抗体; 抗人BCMA单链抗体; not shown: C-terminal 6xHis tag from vector pET-26b; junction residues between insert and t
For B1, the EC50 [1] was 500 pM and the binding result [2] was “no binding”.
